For the assay, the target named is SARS-CoV-2 S protein (SARS-CoV-2) (UniProt P0DTC2). Put plainly: native MS.

“And” between values parts separate entries of the source, which are not always exact repeats. Identical values can stand only once.

For orientation: stoichiometry N means a count of units in the complex or per binding partner. Turning to “SARS-CoV-2 S protein (from UniProt P0DTC2) (natural protein)”, the stoichiometry N is 2 and 6.
